{"source": "the supplement of paper PMC9112550", "about": "“Optimization of the antimicrobial peptide Bac7 by deep mutational scanning” (BMC Biology, 2022);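 also: peptides expressed intracellularly from a pBAD plasmid library in pooled LB shake-flask culture, induced with 0.3% L-arabinose, DNA abundance read by NGS, three biological replicates, DESeq2 with apeglm shrinkage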"}
{"tested_on": "Escherichia coli TOP10", "assay": "shrunken log2 fold change of peptide-encoding DNA abundance (4.5 h post-induction vs induction); higher = less antimicrobial activity (less host growth inhibition)", "conditions": "time post-induction: 4.5 h; library: site-saturation at positions 5, 18, 19, 20"}
{"sequence": "RRIRPRPPRLPRPRPRPVFWPRP", "shrunken log2 fold change": 0.546}
{"sequence": "RRIRNRPPRLPRPRPRPNTLPRP", "shrunken log2 fold change": -0.788}
{"sequence": "RRIRHRPPRLPRPRPRPSRVPRP", "shrunken log2 fold change": -0.0634}
{"sequence": "RRIRVRPPRLPRPRPRPMTSPRP", "shrunken log2 fold change": -0.128}
{"sequence": "RRIRRRPPRLPRPRPRPMVCPRP", "shrunken log2 fold change": 0.0487}
{"sequence": "RRIRHRPPRLPRPRPRPTRCPRP", "shrunken log2 fold change": -0.00896}
{"sequence": "RRIRVRPPRLPRPRPRPPTQPRP", "shrunken log2 fold change": 0.273}
{"sequence": "RRIRCRPPRLPRPRPRPYVGPRP", "shrunken log2 fold change": -0.163}
{"sequence": "RRIRPRPPRLPRPRPRPESMPRP", "shrunken log2 fold change": 0.142}
{"sequence": "RRIRERPPRLPRPRPRPSIIPRP", "shrunken log2 fold change": -0.188}
{"sequence": "RRIRCRPPRLPRPRPRPFPIPRP", "shrunken log2 fold change": -0.305}
{"sequence": "RRIRYRPPRLPRPRPRPVCLPRP", "shrunken log2 fold change": -0.365}
{"sequence": "RRIRGRPPRLPRPRPRPNDFPRP", "shrunken log2 fold change": -0.000929}
{"sequence": "RRIRNRPPRLPRPRPRPCLNPRP", "shrunken log2 fold change": -0.0299}
{"sequence": "RRIRTRPPRLPRPRPRPVTCPRP", "shrunken log2 fold change": -0.0382}
{"sequence": "RRIRGRPPRLPRPRPRPAHYPRP", "shrunken log2 fold change": 0.447}
{"sequence": "RRIRWRPPRLPRPRPRPRRFPRP", "shrunken log2 fold change": 0.269}
{"sequence": "RRIRVRPPRLPRPRPRPYYNPRP", "shrunken log2 fold change": -0.548}
{"sequence": "RRIRCRPPRLPRPRPRPFEEPRP", "shrunken log2 fold change": -0.0957}
{"sequence": "RRIRDRPPRLPRPRPRPFMWPRP", "shrunken log2 fold change": -0.102}
{"sequence": "RRIRCRPPRLPRPRPRPAVIPRP", "shrunken log2 fold change": -0.383}
{"sequence": "RRIRFRPPRLPRPRPRPTNAPRP", "shrunken log2 fold change": -0.143}
{"sequence": "RRIRMRPPRLPRPRPRPWTMPRP", "shrunken log2 fold change": 0.0064}
{"sequence": "RRIRTRPPRLPRPRPRPAVIPRP", "shrunken log2 fold change": 0.0431}
{"sequence": "RRIRIRPPRLPRPRPRPKDKPRP", "shrunken log2 fold change": -0.747}
{"sequence": "RRIRPRPPRLPRPRPRPICIPRP", "shrunken log2 fold change": -0.158}
{"sequence": "RRIRIRPPRLPRPRPRPYDMPRP", "shrunken log2 fold change": -0.19}
{"sequence": "RRIRTRPPRLPRPRPRPHGSPRP", "shrunken log2 fold change": -0.01}
{"sequence": "RRIRWRPPRLPRPRPRPEDHPRP", "shrunken log2 fold change": 0.304}
{"sequence": "RRIRYRPPRLPRPRPRPGKTPRP", "shrunken log2 fold change": -0.0233}
{"sequence": "RRIRERPPRLPRPRPRPALKPRP", "shrunken log2 fold change": 0.4}
{"sequence": "RRIRTRPPRLPRPRPRPKEDPRP", "shrunken log2 fold change": 0.262}
{"sequence": "RRIRWRPPRLPRPRPRPVTDPRP", "shrunken log2 fold change": 0.105}
{"sequence": "RRIRQRPPRLPRPRPRPMCDPRP", "shrunken log2 fold change": 0.00628}
{"sequence": "RRIRVRPPRLPRPRPRPCNPPRP", "shrunken log2 fold change": -0.182}
{"sequence": "RRIRYRPPRLPRPRPRPCTVPRP", "shrunken log2 fold change": -0.0835}
{"sequence": "RRIRLRPPRLPRPRPRPVSYPRP", "shrunken log2 fold change": -0.0976}
{"sequence": "RRIRYRPPRLPRPRPRPYTNPRP", "shrunken log2 fold change": -1.35}
{"sequence": "RRIRGRPPRLPRPRPRPAEVPRP", "shrunken log2 fold change": 0.31}
{"sequence": "RRIRTRPPRLPRPRPRPNLSPRP", "shrunken log2 fold change": 0.00227}
{"sequence": "RRIRHRPPRLPRPRPRPLKAPRP", "shrunken log2 fold change": -0.364}
{"sequence": "RRIRYRPPRLPRPRPRPQSRPRP", "shrunken log2 fold change": -0.17}
{"sequence": "RRIRYRPPRLPRPRPRPGRFPRP", "shrunken log2 fold change": -0.0548}
{"sequence": "RRIRMRPPRLPRPRPRPNEHPRP", "shrunken log2 fold change": 0.0235}
{"sequence": "RRIRQRPPRLPRPRPRPTTVPRP", "shrunken log2 fold change": -0.114}
{"sequence": "RRIRFRPPRLPRPRPRPCSMPRP", "shrunken log2 fold change": -0.343}
{"sequence": "RRIRMRPPRLPRPRPRPNEWPRP", "shrunken log2 fold change": 0.23}
{"sequence": "RRIRIRPPRLPRPRPRPSLIPRP", "shrunken log2 fold change": -0.604}
{"sequence": "RRIRSRPPRLPRPRPRPELTPRP", "shrunken log2 fold change": 0.316}
{"sequence": "RRIRWRPPRLPRPRPRPWTIPRP", "shrunken log2 fold change": -0.0951}
{"sequence": "RRIRIRPPRLPRPRPRPYPAPRP", "shrunken log2 fold change": -0.331}
{"sequence": "RRIRPRPPRLPRPRPRPNWTPRP", "shrunken log2 fold change": 0.218}
{"sequence": "RRIRCRPPRLPRPRPRPTYGPRP", "shrunken log2 fold change": -0.0844}
{"sequence": "RRIRERPPRLPRPRPRPGNEPRP", "shrunken log2 fold change": -0.0966}
{"sequence": "RRIRNRPPRLPRPRPRPQAEPRP", "shrunken log2 fold change": -0.155}
{"sequence": "RRIRTRPPRLPRPRPRPWCKPRP", "shrunken log2 fold change": -0.202}
{"sequence": "RRIRPRPPRLPRPRPRPIHMPRP", "shrunken log2 fold change": -0.23}
{"sequence": "RRIRFRPPRLPRPRPRPIHFPRP", "shrunken log2 fold change": -0.246}
{"sequence": "RRIRQRPPRLPRPRPRPLLNPRP", "shrunken log2 fold change": -0.29}
{"sequence": "RRIRGRPPRLPRPRPRPVQFPRP", "shrunken log2 fold change": 0.535}
{"sequence": "RRIRTRPPRLPRPRPRPAQWPRP", "shrunken log2 fold change": 0.0699}
{"sequence": "RRIRCRPPRLPRPRPRPEHGPRP", "shrunken log2 fold change": 0.11}
{"sequence": "RRIRRRPPRLPRPRPRPGNMPRP", "shrunken log2 fold change": -0.266}
{"sequence": "RRIRSRPPRLPRPRPRPPACPRP", "shrunken log2 fold change": 0.185}
{"sequence": "RRIRTRPPRLPRPRPRPLGQPRP", "shrunken log2 fold change": -0.137}
{"sequence": "RRIRYRPPRLPRPRPRPCAEPRP", "shrunken log2 fold change": -0.835}
{"sequence": "RRIRGRPPRLPRPRPRPRCYPRP", "shrunken log2 fold change": 0.555}
{"sequence": "RRIRLRPPRLPRPRPRPSQAPRP", "shrunken log2 fold change": 0.182}
{"sequence": "RRIRNRPPRLPRPRPRPRKGPRP", "shrunken log2 fold change": -0.16}
{"sequence": "RRIRARPPRLPRPRPRPDVDPRP", "shrunken log2 fold change": 1.1}
{"sequence": "RRIRERPPRLPRPRPRPTDDPRP", "shrunken log2 fold change": -0.00106}
{"sequence": "RRIRARPPRLPRPRPRPKLKPRP", "shrunken log2 fold change": 0.272}
{"sequence": "RRIRYRPPRLPRPRPRPYANPRP", "shrunken log2 fold change": -0.474}
{"sequence": "RRIRDRPPRLPRPRPRPIGIPRP", "shrunken log2 fold change": 0.00854}
{"sequence": "RRIRNRPPRLPRPRPRPQDYPRP", "shrunken log2 fold change": 0.087}
